In patent US20240082183A1, “METHODS FOR PREVENTING OR TREATING CONDITIONS RELATED TO T CELL MEDIATED INTESTINAL DISORDERS” (The Regents of the University of Michigan, priority 2021, published 2024):

T1: Recombinant SDHB (Mus musculus, UniProt Q9CQA3)
T1 construct: purchased LSBio LS-G26026
T1 sequence (Q9CQA3 31-282): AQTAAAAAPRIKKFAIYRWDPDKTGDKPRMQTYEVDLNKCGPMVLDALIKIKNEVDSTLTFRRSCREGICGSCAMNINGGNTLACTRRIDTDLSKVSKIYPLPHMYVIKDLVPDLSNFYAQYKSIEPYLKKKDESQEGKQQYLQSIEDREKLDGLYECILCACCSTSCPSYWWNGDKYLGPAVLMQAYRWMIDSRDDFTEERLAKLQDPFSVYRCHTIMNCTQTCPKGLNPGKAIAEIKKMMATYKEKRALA

B1: GDF15: growth and differentiation factor15 that promotes the tissue tolerance (protein, UniProt Q99988 195-308, looked up)
Growth/differentiation factor …: ARARNGDHCPLGPGRCCRLHTVRASLEDLGWADWVLSPREVQVTMCIGACPSQFRAANMHAQIKTSLHRLKPDTVPAPCCVPASYNPMVLIQKTDTGVSLQTYDDLLAKDCHCI
B2: GzmB: recombinant mouse Granzyme B (protein)
chain: IIGGHEVKPHSRPYMALLSIKDQQPEAICGGFLIREDFVLTAAHCEGSIINVTLGAHNIKEQEKTQQVIPMVKCIPHPDYNPKTFSNDIMLLKLKSKAKRTRAVRPLNLPRRNVNVKPGDVCYVAGWGRMAPMGKYSNTLQEVELTVQKDRECESYFKNRYNKTNQICAGDPKTKRASFRGDSGGPLVCKKVAAGIVSYGYKDGSPPRAFTKVSSFLSWIKKTMKSS

Key:
[1] = tested on: primary colonic epithelial cells (PCECs); assay: Apoptosis of pre-treated PCECs induced by perforin and Granzyme B; format: cell-based, C57BL/6 mice; details: pre-treated 2 hours, then perforin and Granzyme B 4 hours
Method: Cell culture: C57BL/6 primary colonic epithelial cells (PCEC, C57-6047, Cell Biologics, Chicago, IL) were cultured in compete epithelial growth medium supplemented with insulin-transferrin-selenium, epidermal growth factor, glutamine, antibiotics, antimycotics and fecal bovine serum (#M6621, Cell Biologics). Cells were routinely tested for mycoplasma contamination using MycoAlert (#LT07-318, Lonza, Switzerland). Cells were treated with Mouse active perforin (#APB317Mu01, Cloud-Clone Corp., Katy, TX) and recombinant mouse Granzyme B (#140-03, PeproTech, Rocky Hill, NJ) for 4 to 6 hours in indicated concentrations following manufacturer's recommendations. Cells were incubated with GDF-15 (#8944-GD-025, 500 pg/mL, R&D Systems, Minneapolis, MN), Tiron (#172553, 10 mM, Sigma-Aldrich, St. Louis, MO), Trolox (#648471, 0.5 mM, Sigma-Aldrich), 4-Octyl itaconate (#SML2338, 0.1 mM, Sigma-Aldrich) and NAD (#N8285, 1 mM, Sigma-Aldrich).

Recombinant SDHB = target: T1, Recombinant SDHB; assay: SDHA cleavage assay, cell free, recombinant SDHB control; format: biochemical; details: 90 minutes
Method: (§1) SDHA cleavage assay: 75 ug Isolated mitochondria in 25 ul EDB buffer (10 mM HEPES, 50 mM NaCl, 2 mM MgCl2, 5 mM EGTA and 1 mM DTT) were incubated with 75 ng mouse Granzyme B at 37 degrees and then separated by SDS-PAGE^70. Mouse recombinant SDHA protein with His Tag (LS-G26030, LSBio, Seattle, WA) and mouse recombinant SDHB protein with His Tag (LS-G26026, LSBio) in EDB buffer (25 ug in 8.3 ul) were incubated with 25 ng mouse Granzyme B at 37 degrees for 90 minutes. Proteins were then separated by SDS-PAGE and blotted with anti-His Tag antibody (LS-C60077, 1:1000, LSBio) and anti-SDHA (#ab139181, 1:1000, Abcam).

SDHA [2] = target: T2, SDHA (Mus musculus, UniProt Q8K2B3); assay: SDHA cleavage assay, isolated mitochondria from IECs; format: biochemical; set-up: 75 ug Isolated mitochondria in 25 ul EDB buffer; from tissue; host or cells: mitochondria isolated from mouse intestinal epithelial cells; details: ex vivo
T2 sequence (Q8K2B3 43-664): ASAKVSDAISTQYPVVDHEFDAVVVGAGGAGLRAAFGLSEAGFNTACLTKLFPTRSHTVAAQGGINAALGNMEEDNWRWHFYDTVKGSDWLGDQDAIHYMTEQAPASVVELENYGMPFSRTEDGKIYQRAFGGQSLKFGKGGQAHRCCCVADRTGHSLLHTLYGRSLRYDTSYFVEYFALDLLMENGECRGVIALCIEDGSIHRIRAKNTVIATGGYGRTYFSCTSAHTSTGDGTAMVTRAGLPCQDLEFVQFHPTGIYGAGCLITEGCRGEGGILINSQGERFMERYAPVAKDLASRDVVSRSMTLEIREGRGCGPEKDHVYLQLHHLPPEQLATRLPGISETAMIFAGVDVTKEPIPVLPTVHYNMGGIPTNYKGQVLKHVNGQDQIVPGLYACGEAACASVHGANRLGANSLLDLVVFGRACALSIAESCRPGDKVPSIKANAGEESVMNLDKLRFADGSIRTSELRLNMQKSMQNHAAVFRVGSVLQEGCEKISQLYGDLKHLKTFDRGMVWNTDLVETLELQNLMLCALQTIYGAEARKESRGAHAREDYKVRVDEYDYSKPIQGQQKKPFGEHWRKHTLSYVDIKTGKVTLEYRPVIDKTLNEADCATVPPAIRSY
Method: as §1

SDHA [3] = target: T2, SDHA; assay: SDHA cleavage assay, cell free, recombinant SDHA; format: biochemical; set-up: purchased LSBio LS-G26030; details: 90 minutes
Method: as §1

mutated SDHA protein = target: T3, mutated SDHA protein (Mus musculus, UniProt Q8K2B3, D241A); assay: GzmB treatment of SDHA mutated at the putative cleavage site; format: biochemical; details: 6 hours
T3 construct: host or cells: E. coli BL21 Star (DE3)
T3 sequence (Q8K2B3 43-664 D241A): as the sequence (Q8K2B3 43-664) above, with D199A counted along it
Method: Generation of normal SDHA protein and mutated SDHA protein: Target DNA sequence of mouse normal SDHA and mutated SDHA was optimized and synthesized (GenScript). The synthesized sequence was cloned into vector pET-30a(+) with His tag for protein expression in E. coli. E. coli strain BL21 Star™(DE3) was transformed with recombinant plasmid. A single colony was inoculated into LB medium containing related antibiotic; culture was incubated in 37° C. at 200 rpm and then induced with IPTG. SDS-PAGE was used to monitor the expression. Recombinant BL21 Star™ (DE3) stored in glycerol was inoculated into TB medium containing related antibiotic and cultured at 37° C. When the OD600 reached about 1.2, cell culture was induced with IPTG at 15° C./16 h. Cells were harvested by centrifugation. Cell pellets were resuspended with lysis buffer followed by sonication. The precipitate after centrifugation was dissolved using denaturing agent. Target protein was obtained by one-step purification using Ni column. Target protein was sterilized by 0.22 μm filter before stored in aliquots. The concentration was determined by Bradford protein assay with BSA as standard. The protein purity and molecular weight were determined by standard SDS-PAGE along with Western blot confirmation. […]

Molecule	apoptosis of PCECs induced by GranzymeB and perforin [1]	proteolysis of recombinant SDHB (Recombinant SDHB)	proteolysis of SDHA in isolated mitochondria (SDHA [2])	proteolysis of recombinant SDHA (SDHA [3])	proteolysis of mutated SDHA (Ile-Glu-Asp-Gly to Ile-Glu-Ala-Gly) (mutated SDHA protein)
B1	did not reduce apoptosis	–	–	–	–
B2	–	not SDHB	caused proteolysis of SDHA	direct proteolysis	prevented proteolysis
